Substitutions are numbered along the chain they refer to. One block for each binder: values may come before it.
Target: T1, IL-2 receptors (high-affinity IL-2Rαβγ or intermediate-affinity IL-2Rβγ) on PBMC lymphocytes (UniProt P01589 22-272; P14784 27-551; P31785 23-369, limits assumed)
T1 sequence (looked up) 1: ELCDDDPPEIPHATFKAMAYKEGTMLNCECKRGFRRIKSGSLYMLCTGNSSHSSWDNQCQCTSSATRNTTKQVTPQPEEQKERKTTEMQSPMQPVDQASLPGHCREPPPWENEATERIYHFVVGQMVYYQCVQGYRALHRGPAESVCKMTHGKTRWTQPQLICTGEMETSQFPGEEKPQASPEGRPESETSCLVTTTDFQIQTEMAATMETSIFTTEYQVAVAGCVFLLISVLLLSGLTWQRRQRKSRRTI
T1 sequence (looked up) 2: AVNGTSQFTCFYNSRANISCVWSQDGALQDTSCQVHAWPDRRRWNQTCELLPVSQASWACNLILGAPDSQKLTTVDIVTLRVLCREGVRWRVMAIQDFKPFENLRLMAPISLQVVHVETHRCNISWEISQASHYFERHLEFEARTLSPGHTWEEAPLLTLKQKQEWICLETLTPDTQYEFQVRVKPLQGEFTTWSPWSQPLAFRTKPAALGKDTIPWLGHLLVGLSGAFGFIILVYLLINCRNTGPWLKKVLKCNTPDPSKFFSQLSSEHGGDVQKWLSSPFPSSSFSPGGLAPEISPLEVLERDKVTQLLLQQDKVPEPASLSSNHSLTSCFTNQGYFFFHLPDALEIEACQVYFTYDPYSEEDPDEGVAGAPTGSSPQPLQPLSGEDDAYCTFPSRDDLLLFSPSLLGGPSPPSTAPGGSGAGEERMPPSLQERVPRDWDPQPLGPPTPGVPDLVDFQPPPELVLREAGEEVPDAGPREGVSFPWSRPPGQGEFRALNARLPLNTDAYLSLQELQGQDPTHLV
T1 sequence (looked up) 3: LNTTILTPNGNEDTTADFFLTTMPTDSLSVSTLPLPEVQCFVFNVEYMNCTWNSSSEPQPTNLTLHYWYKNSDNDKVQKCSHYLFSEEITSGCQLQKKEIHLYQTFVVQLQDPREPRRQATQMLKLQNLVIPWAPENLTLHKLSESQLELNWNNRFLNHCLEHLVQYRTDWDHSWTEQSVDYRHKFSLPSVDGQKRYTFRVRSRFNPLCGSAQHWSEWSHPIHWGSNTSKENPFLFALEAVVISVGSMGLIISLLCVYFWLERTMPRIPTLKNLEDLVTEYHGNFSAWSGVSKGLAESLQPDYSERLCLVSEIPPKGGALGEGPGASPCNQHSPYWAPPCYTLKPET
Assay: cell-based or functional assay

EC50, induction of STAT5 phosphorylation (in vitro potency): 1 nM
B1: XENP26105 (Fc fusion)
chain 1: EPKSSDKTHTCPPCPAPPVAGPSVFLFPPKPKDTLMISRTPEVTCVVVDVKHEDPEVKFNWYVDGVEVHNAKTKPREEEYNSTYRVVSVLTVLHQDWLNGKEYKCKVSNKALPAPIEKTISKAKGQPREPQVYTLPPSREEMTKNQVSLTCDVSGFYPSDIAVEWESDGQPENNYKTTPPVLDSDGSFFLYSKLTVDKSRWEQGDVFSCSVMHEALHNHYTQKSLSLSPGK
chain 2: APASSSTKKTQLQLEHLLLNLQMILNGINNYKNPKLRRMLTFKFYMPKKATELKHLQCLEEELKPLEEVLNLAQSKNFHLRPRDLISNINVIVLELKGSETTFMCEYADETATIVEFLNRWITFSQSIISTLTEPKSSDKTHTCPPCPAPPVAGPSVFLFPPKPKDTLMISRTPEVTCVVVDVKHEDPEVKFNWYVDGVEVHNAKTKPREEQYNSTYRVVSVLTVLHQDWLNGKEYKCKVSNKALPAPIEKTISKAKGQPREPQVYTLPPSREQMTKNQVKLTCLVKGFYPSDIAVEWESNGQPENNYKTTPPVLDSDGSFFLYSKLTVDKSRWQQGNVFSCSVMHEALHNHYTQKSLSLSPGK

EC50, induction of STAT5 phosphorylation (in vitro potency): 5 nM
B2: XENP26109 (Fc fusion)
chain 1: B1 chain 1
chain 2: B1 chain 2 with R37T, N71K

Source: patent publication US20250092108A1 (Xencor, published 2025)
